# Results from the supplement of paper PMC9112550, “Optimization of the antimicrobial peptide Bac7 by deep mutational scanning” (BMC Biology, 2022).
# System: Escherichia coli TOP10
# Assay: shrunken log2 fold change of peptide-encoding DNA abundance (4.5 h post-induction vs induction); higher = less antimicrobial activity (less host growth inhibition)
# Conditions: time post-induction: 4.5 h; library: site-saturation at positions 5, 18, 19, 20
# 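Further: peptides expressed intracellularly from a pBAD plasmid library in pooled LB shake-flask culture, induced with 0.3% L-arabinose, DNA abundance read by NGS, three biological replicates, DESeq2 with apeglm shrinkage.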
row,Sequence,shrunken log2 fold change
1,RRIRIRPPRLPRPRPRPQDDPRP,0.0213
2,RRIRIRPPRLPRPRPRPAIAPRP,-0.206
3,RRIRHRPPRLPRPRPRPIVQPRP,-0.115
4,RRIRRRPPRLPRPRPRPENSPRP,0.118
5,RRIRPRPPRLPRPRPRPYSQPRP,-1.06
6,RRIRPRPPRLPRPRPRPMEMPRP,-0.0174
7,RRIRHRPPRLPRPRPRPDRTPRP,0.0869
8,RRIRCRPPRLPRPRPRPKDRPRP,-0.0193
9,RRIRTRPPRLPRPRPRPGGIPRP,0.0232
10,RRIRQRPPRLPRPRPRPMLSPRP,-0.0514
11,RRIRARPPRLPRPRPRPWVFPRP,0.276
12,RRIRLRPPRLPRPRPRPPVKPRP,-0.0732
13,RRIRYRPPRLPRPRPRPAYCPRP,-0.0229
14,RRIRHRPPRLPRPRPRPADNPRP,-0.306
15,RRIRDRPPRLPRPRPRPQTAPRP,4.26
16,RRIRERPPRLPRPRPRPDSQPRP,-0.0262
17,RRIRTRPPRLPRPRPRPHFIPRP,-0.321
18,RRIRDRPPRLPRPRPRPQAGPRP,0.152
19,RRIRRRPPRLPRPRPRPKECPRP,0.0842
20,RRIRFRPPRLPRPRPRPGETPRP,0.138
21,RRIRCRPPRLPRPRPRPRHWPRP,0.261
22,RRIRGRPPRLPRPRPRPTLFPRP,0.824

row,Sequence,shrunken log2 fold change
1,RRIRPRPPRLPRPRPRPFSRPRP,-0.099
2,RRIRTRPPRLPRPRPRPTDAPRP,0.471
3,RRIRKRPPRLPRPRPRPRTAPRP,0.843
4,RRIRVRPPRLPRPRPRPMPYPRP,0.122
5,RRIRHRPPRLPRPRPRPSPKPRP,-0.0976
6,RRIRVRPPRLPRPRPRPWCDPRP,-0.394
7,RRIRMRPPRLPRPRPRPPSFPRP,-0.0206
8,RRIRPRPPRLPRPRPRPNEFPRP,-0.0949
9,RRIRDRPPRLPRPRPRPEGPPRP,1.51
10,RRIRRRPPRLPRPRPRPNTMPRP,-0.262
11,RRIRFRPPRLPRPRPRPGVDPRP,-0.145
12,RRIRWRPPRLPRPRPRPRIEPRP,0.186
13,RRIRERPPRLPRPRPRPCEFPRP,-0.283
14,RRIRVRPPRLPRPRPRPLYMPRP,-0.128
15,RRIRGRPPRLPRPRPRPSPFPRP,0.168
16,RRIRLRPPRLPRPRPRPPMVPRP,-0.192
17,RRIRWRPPRLPRPRPRPCWYPRP,-0.277
18,RRIRDRPPRLPRPRPRPAPKPRP,0.0948
19,RRIRVRPPRLPRPRPRPTAIPRP,0.12
20,RRIRCRPPRLPRPRPRPCLSPRP,-0.381
21,RRIRFRPPRLPRPRPRPQAGPRP,-0.0266
22,RRIRMRPPRLPRPRPRPSRHPRP,0.228

row,Sequence,shrunken log2 fold change
1,RRIRGRPPRLPRPRPRPYTFPRP,0.151
2,RRIRMRPPRLPRPRPRPTGLPRP,0.961
3,RRIRCRPPRLPRPRPRPANLPRP,-0.687
4,RRIRCRPPRLPRPRPRPMHDPRP,0.0244
5,RRIRARPPRLPRPRPRPDDCPRP,0.167
6,RRIRFRPPRLPRPRPRPYRGPRP,-0.384
7,RRIRKRPPRLPRPRPRPRITPRP,0.227
8,RRIRNRPPRLPRPRPRPLFTPRP,-0.0916
9,RRIRQRPPRLPRPRPRPRWIPRP,0.274
10,RRIRCRPPRLPRPRPRPYRCPRP,-0.282
11,RRIRWRPPRLPRPRPRPQSYPRP,-0.0988
12,RRIRSRPPRLPRPRPRPDTFPRP,0.024
13,RRIRKRPPRLPRPRPRPNNMPRP,-0.304
14,RRIRHRPPRLPRPRPRPDKLPRP,-0.0246
15,RRIRPRPPRLPRPRPRPHQAPRP,0.0618
16,RRIRPRPPRLPRPRPRPVCWPRP,0.533
17,RRIRGRPPRLPRPRPRPWGQPRP,0.204
18,RRIRWRPPRLPRPRPRPNQVPRP,0.0796
19,RRIRHRPPRLPRPRPRPSFAPRP,0.0263
20,RRIRGRPPRLPRPRPRPKKVPRP,0.942
21,RRIRTRPPRLPRPRPRPFAGPRP,-0.0338
22,RRIRNRPPRLPRPRPRPNRSPRP,-0.165

row,Sequence,shrunken log2 fold change
1,RRIRGRPPRLPRPRPRPCPDPRP,0.359
2,RRIRMRPPRLPRPRPRPIVMPRP,0.163
3,RRIRSRPPRLPRPRPRPVFAPRP,0.218
4,RRIRMRPPRLPRPRPRPKACPRP,0.558
5,RRIRLRPPRLPRPRPRPQQSPRP,-0.047
6,RRIRVRPPRLPRPRPRPNMMPRP,-0.248
7,RRIRMRPPRLPRPRPRPTLAPRP,1.35
8,RRIRLRPPRLPRPRPRPFKMPRP,-0.388
9,RRIRIRPPRLPRPRPRPCRFPRP,-0.0104
10,RRIRDRPPRLPRPRPRPFYYPRP,-0.899
11,RRIRCRPPRLPRPRPRPRDQPRP,0.278
12,RRIRERPPRLPRPRPRPPHLPRP,-0.0668
13,RRIRWRPPRLPRPRPRPFSKPRP,-0.0531
14,RRIRLRPPRLPRPRPRPIYFPRP,-0.37
15,RRIRDRPPRLPRPRPRPPDQPRP,0.72
16,RRIRARPPRLPRPRPRPKWVPRP,0.222
17,RRIRLRPPRLPRPRPRPDNRPRP,-0.0526
18,RRIRHRPPRLPRPRPRPWHLPRP,-1.9
19,RRIRYRPPRLPRPRPRPLCVPRP,-0.722
20,RRIRARPPRLPRPRPRPEHGPRP,0.0464
21,RRIRERPPRLPRPRPRPSFHPRP,-0.549
22,RRIRLRPPRLPRPRPRPIPMPRP,0.0494

row,Sequence,shrunken log2 fold change
1,RRIRLRPPRLPRPRPRPQHWPRP,-0.044
2,RRIRHRPPRLPRPRPRPALGPRP,-0.0558
3,RRIRVRPPRLPRPRPRPSRTPRP,-0.47
4,RRIRYRPPRLPRPRPRPFWCPRP,-0.208
5,RRIRTRPPRLPRPRPRPDIFPRP,-0.234
6,RRIRARPPRLPRPRPRPFWKPRP,-0.13
7,RRIRRRPPRLPRPRPRPSKCPRP,-0.47
8,RRIRERPPRLPRPRPRPPVWPRP,0.634
9,RRIRVRPPRLPRPRPRPGVEPRP,0.243
10,RRIRTRPPRLPRPRPRPWTVPRP,-0.0107
11,RRIRQRPPRLPRPRPRPGNAPRP,0.322
12,RRIRTRPPRLPRPRPRPEHYPRP,-0.0177
13,RRIRPRPPRLPRPRPRPTHHPRP,0.264
14,RRIRNRPPRLPRPRPRPLMTPRP,0.0149
15,RRIRPRPPRLPRPRPRPRCSPRP,0.00477
16,RRIRMRPPRLPRPRPRPKSYPRP,0.0526
17,RRIRARPPRLPRPRPRPTFLPRP,0.113
18,RRIRTRPPRLPRPRPRPQVPPRP,0.101
19,RRIRTRPPRLPRPRPRPCTGPRP,-0.0103
20,RRIRARPPRLPRPRPRPRIPPRP,0.0568
21,RRIRARPPRLPRPRPRPHCEPRP,-0.113
